Reference: article PMC8954747 (Viruses, 2022)

T1: human Scribble (SCRIB) PDZ3 domain (residues 1002-1093) (human, UniProt Q14160 1002-1093)
T1 construct: also called wild-type SCRIB PDZ3
T1 sequence (looked up): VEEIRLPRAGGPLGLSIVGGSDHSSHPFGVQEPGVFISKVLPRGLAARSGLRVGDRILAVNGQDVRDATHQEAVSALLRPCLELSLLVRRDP

T2: human Scribble (SCRIB) PDZ2 domain (residues 860-950) (human, UniProt Q14160 860-950)
T2 construct: also called PDZ2 WT
T2 sequence (looked up): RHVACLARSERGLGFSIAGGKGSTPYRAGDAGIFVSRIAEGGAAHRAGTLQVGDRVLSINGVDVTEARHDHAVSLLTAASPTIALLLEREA

T3: human Scribble (SCRIB) PDZ4 domain (residues 1099-1203) (human, UniProt Q14160 1099-1203)
T3 sequence (looked up): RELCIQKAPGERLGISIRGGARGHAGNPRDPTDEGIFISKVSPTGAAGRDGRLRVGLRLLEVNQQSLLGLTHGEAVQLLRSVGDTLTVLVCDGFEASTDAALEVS


What was measured:
Assay in all cases: ITC
Conditions in all cases: both partners purified
[1] = biological target: T1, human Scribble (SCRIB) PDZ3 domain …
[2] = biological target: T2, human Scribble (SCRIB) PDZ2 domain …
[3] = biological target: T3, human Scribble (SCRIB) PDZ4 domain …
[4] = biological target: T4, human Scribble (SCRIB) PDZ1 domain (residues 725-815) (human, UniProt Q14160 725-815)
T4 construct: also called PDZ1 WT
T4 sequence (Q14160 725-815): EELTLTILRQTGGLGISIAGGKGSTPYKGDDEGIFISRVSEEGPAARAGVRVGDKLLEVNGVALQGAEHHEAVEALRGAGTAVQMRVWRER

Binder | Kd [1] [µM] | stoichiometry N [1] | Kd [2] [µM] | stoichiometry N [2] | Kd [3] [µM] | stoichiometry N [3] | Kd [4] [µM] | stoichiometry N [4]
KMARTIESEV [NS1 ESEV PBM peptide KMARTIESEV (H5N1 A/Viet Nam/1194/2004), 10-mer] | 13.1 | 1.1 ± 0.1 | 18.7 | 1 ± 0.03 | 12.2 | 1 ± 0.1 | 21.4 | 1.1 ± 0.1
KMARTIESKV [NS1 ESKV PBM peptide KMARTIESKV (H5N1 A/chicken/Hubei/327/2004), 10-mer] | 12.1 | 1.1 | 9.5 | 1.1 | – | – | 30 | 1.2
